Numbering of substitutions follows the chain as printed. Blank lines part the entries; values can stand above or below the binder they belong to.
Experiments:
[1] = target: T1, TNF-R2 (a protein having the amino acid sequence, Accession No. M55994 registered at GENBANK) (UniProt P20333 23-257, limits assumed); experiment: SPR (BIACORE 2000), receptor on sensor tip; grade 1 = 0.001 to 0.1 time that of recombinant TNF-α
T1 construct: also called TNF receptor with 75 kilo daltons
T1 sequence (looked up): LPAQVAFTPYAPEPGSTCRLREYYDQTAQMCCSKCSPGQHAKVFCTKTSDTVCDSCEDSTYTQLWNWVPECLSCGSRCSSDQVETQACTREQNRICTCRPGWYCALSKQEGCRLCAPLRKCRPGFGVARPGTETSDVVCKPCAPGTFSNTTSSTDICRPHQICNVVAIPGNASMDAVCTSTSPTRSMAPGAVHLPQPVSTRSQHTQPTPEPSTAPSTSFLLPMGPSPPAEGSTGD
From the text: (§1) Using the above detector based on surface plasmon resonance effect again, the resulting clones binding to TNF-R1 (or TNF-R2) were subjected to the remaining sensor tip conjugated with TNF-R2 (or TNF-R1) to measure receptor binding affinity and select clones having a variation of receptor binding affinity. […] The resulting DNAs were digested with restrict enzymes NdeI and BamHI to obtain DNA fragments. The resulting DNA fragments were introduced into a plasmid vector containing T7 promoter region, T7 terminator region, ampicillin resistant gene region and ColE1/Ori region (product name “pET-3a”, manufactured by “Novagen®” (EMD Biosciences, Inc.)) at the position of the above restriction sites. The resulting plasmid was introduced into E. coli BL21DE3 strain to obtain a transformed E. coli for producing the TNF mutant proteins. The obtained transformed E. coli was cultured according to usual method and centrifuged to collect E. coli pellet. The resulting pellet was washed twice with TES buffer (pH 8.0) (20 mM Tris-HCl, 10 mM ethylene diamine tetraacetic acid and 0.5 M sodium chloride) and admixed with TES buffer (pH 8.0) containing 0.2 mg/ml lysozyme. The resulting suspension was sonicated according to usual manner, and centrifuged to collect a precipitate containing the produced TNF mutant protein. The resulting precipitate was treated three times in a manner of admixing with TES buffer containing 1 (w/w) % Triton X-100, removed from supernatant by centrifuging, admixed with 50 mM Tris-HCl (pH 7.0) containing 8 M guanidine hydrochloride and 50 mM dithiothreitol, with stirring for 16 hours at ambient temperature under shielded condition, and centrifuged to collect a supernatant. The resulting supernatant was gently admixed with 100 time volumes of a aqueous solution containing 1 M Tris, 0.9 (w/v) % sodium chloride, 0.4 M L-arginine chloride, 2.5 mM reduced glutathione, 0.5 mM oxidized glutathione and 0.05 (w/v) % Tween 20, and kept at 4° C. for 16 hours.

[2] = target: T2, TNF-R1 (a protein having the amino acid sequence, Accession No. M58286 registered at GENBANK) (UniProt P19438 30-211, limits assumed); experiment: SPR (BIACORE 2000), receptor on sensor tip; grade 4 = two times or more that of recombinant TNF-α
T2 construct: also called TNF receptor having a molecular weight of 55 kilo daltons
T2 sequence (looked up): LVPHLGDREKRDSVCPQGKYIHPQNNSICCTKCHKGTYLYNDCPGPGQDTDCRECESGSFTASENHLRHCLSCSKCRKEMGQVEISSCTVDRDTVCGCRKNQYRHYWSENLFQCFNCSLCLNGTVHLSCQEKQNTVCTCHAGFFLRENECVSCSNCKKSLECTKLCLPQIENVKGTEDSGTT
From the text: as §1

[3] = target: T2, TNF-R1 (a protein having the amino acid …); experiment: SPR (BIACORE 2000), receptor on sensor tip; grade 3 = 0.5 to 2 times that of recombinant TNF-α
From the text: as §1

TNF-R1 on HEp-2 cells = target: T3, TNF-R1 on HEp-2 cells (human, UniProt P19438 30-455); experiment: cell-based or functional assay
T3 sequence (looked up): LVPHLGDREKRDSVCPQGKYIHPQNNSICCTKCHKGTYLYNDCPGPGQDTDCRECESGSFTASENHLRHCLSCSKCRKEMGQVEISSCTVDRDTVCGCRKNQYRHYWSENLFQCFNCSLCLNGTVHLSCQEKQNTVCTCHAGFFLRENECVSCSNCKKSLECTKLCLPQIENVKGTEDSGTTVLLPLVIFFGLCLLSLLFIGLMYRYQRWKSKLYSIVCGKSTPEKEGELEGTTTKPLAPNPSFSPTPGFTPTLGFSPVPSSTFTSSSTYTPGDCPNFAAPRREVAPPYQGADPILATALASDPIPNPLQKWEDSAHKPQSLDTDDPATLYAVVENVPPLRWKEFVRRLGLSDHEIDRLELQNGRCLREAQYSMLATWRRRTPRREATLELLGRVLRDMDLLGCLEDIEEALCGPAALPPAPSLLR

TNF-R1 on L-M cells = target: T4, TNF-R1 on L-M cells (mouse, UniProt P25118 30-454); experiment: cell-based or functional assay
T4 sequence (looked up): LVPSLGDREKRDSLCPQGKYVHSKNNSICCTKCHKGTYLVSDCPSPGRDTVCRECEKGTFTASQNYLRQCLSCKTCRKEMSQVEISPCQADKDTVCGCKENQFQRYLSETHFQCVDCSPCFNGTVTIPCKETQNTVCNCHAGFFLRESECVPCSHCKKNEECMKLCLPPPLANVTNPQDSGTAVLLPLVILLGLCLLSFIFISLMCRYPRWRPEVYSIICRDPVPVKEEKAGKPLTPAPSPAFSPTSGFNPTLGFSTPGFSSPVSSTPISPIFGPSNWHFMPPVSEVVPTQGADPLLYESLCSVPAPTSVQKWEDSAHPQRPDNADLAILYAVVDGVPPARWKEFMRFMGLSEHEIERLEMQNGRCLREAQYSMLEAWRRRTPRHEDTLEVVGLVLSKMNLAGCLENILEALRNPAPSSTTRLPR

binding affinity relative to recombinant TNF-α [1]: 0.001 to 0.1 fold | binding affinity relative to recombinant TNF-α [2]: ≥ 2 fold
B1: TNF mutant protein of clone No. 24 (ligand)
chain: VRSSSRTPSDMPVAHVVANPQAEGQLQWLNRRANALLANGVELRDNQLVVPSEGLYLIYSQVLFSGQGCPSTHVLLTHTISRITHKYPQPVNLLSAIRSPCQRETPEGAEANPWYEPIYLGGVFQLEPGDRLSAEINRPDYLDFAESGQVYFGIIAL
notes: Mutant of lysine-replaced TNF, made in E. coli

binding affinity relative to recombinant TNF-α [1]: 0.001 to 0.1 fold | binding affinity relative to recombinant TNF-α [3]: 0.5 to 2 fold
B2: TNF mutant protein of clone No. 28 (ligand)
chain: B1 chain with H85K, K86S, P88S, Q89K
notes: as for B1

binding affinity relative to recombinant TNF-α [1]: 0.001 to 0.1 fold | binding affinity relative to recombinant TNF-α [2]: ≥ 2 fold
B3: TNF mutant protein of clone No. 18 (ligand)
chain: B1 chain with T84S, H85P, K86L, Q89K
notes: as for B1

binding affinity relative to recombinant TNF-α [1]: 0.001 to 0.1 fold | binding affinity relative to recombinant TNF-α [3]: 0.5 to 2 fold
B4: TNF mutant protein of clone No. 37 (ligand)
chain: B1 chain with T84S, H85T, K86T, Y87H, P88N
notes: Mutant of lysine-replaced TNF, made in E. coli; also called TNF antagonist of clone No. 37
Viability (%) of HEp-2 cells, 10 ng/ml TNF-α + 1,000 ng/ml TNF antagonist (9 without antagonist) (TNF-R1 on HEp-2 cells): 11% | Viability (%) of HEp-2 cells, 10 ng/ml TNF-α + 10,000 ng/ml TNF antagonist (9 without antagonist) (TNF-R1 on HEp-2 cells): 18% | Viability (%) of HEp-2 cells, 10 ng/ml TNF-α + 100,000 ng/ml TNF antagonist (9 without antagonist) (TNF-R1 on HEp-2 cells): 43% | Viability (%) of HEp-2 cells, 10 ng/ml TNF-α + 500,000 ng/ml TNF antagonist (9 without antagonist) (TNF-R1 on HEp-2 cells): 75% | Viability (%) of L-M cells, 10 ng/ml TNF-α + 1,000 ng/ml TNF antagonist (17 without antagonist) (TNF-R1 on L-M cells): 42% | Viability (%) of L-M cells, 10 ng/ml TNF-α + 10,000 ng/ml TNF antagonist (17 without antagonist) (TNF-R1 on L-M cells): 51% | Viability (%) of L-M cells, 10 ng/ml TNF-α + 100,000 ng/ml TNF antagonist (17 without antagonist) (TNF-R1 on L-M cells): 59% | Viability (%) of L-M cells, 10 ng/ml TNF-α + 500,000 ng/ml TNF antagonist (17 without antagonist) (TNF-R1 on L-M cells): 72%

binding affinity relative to recombinant TNF-α [1]: 0.001 to 0.1 fold | binding affinity relative to recombinant TNF-α [2]: ≥ 2 fold
B5: TNF mutant protein of clone No. 19 (ligand)
chain: B1 chain with T84S, H85Y, K86N, P88N, Q89G
notes: as for B1

binding affinity relative to recombinant TNF-α [1]: 0.001 to 0.1 fold | binding affinity relative to recombinant TNF-α [2]: ≥ 2 fold
B6: TNF mutant protein of clone No. 23 (ligand)
chain: B1 chain with H85T, K86A, P88S, Q89G
notes: as for B1

binding affinity relative to recombinant TNF-α [1]: 0.001 to 0.1 fold | binding affinity relative to recombinant TNF-α [2]: ≥ 2 fold
B7: TNF mutant protein of clone No. 21 (ligand)
chain: B1 chain with H85S, K86A, P88G, Q89P
notes: as for B1

binding affinity relative to recombinant TNF-α [1]: 0.001 to 0.1 fold | binding affinity relative to recombinant TNF-α [3]: 0.5 to 2 fold
B8: TNF mutant protein of clone No. 22 (ligand)
chain: B1 chain with T84S, H85R, K86V, P88T, Q89A
notes: as for B1

binding affinity relative to recombinant TNF-α [1]: 0.001 to 0.1 fold | binding affinity relative to recombinant TNF-α [3]: 0.5 to 2 fold
B9: TNF mutant protein of clone No. 6 (ligand)
chain: VRSSSRTPSDMPVAHVVANPQAEGQLQWSNRYANALLANGVELRDNQLVVPSEGLYLIYSQVLFSGQGCPSTHVLLTHTISRIAVSYQTPVNLLSAIRSPCQRETPEGAEANPWYEPIYLGGVFQLEPGDRLSAEINRPDYLDFSM
notes: Mutant of lysine-replaced TNF, made in E. coli; stop codon at position 147

From US20100222258A1 (KABUSHIKI KAISHA HAYASHIBARA SEIBUTSU KAGAKU KENKYUJO, published 2010)
